# Molecular target: TCR Vβ3.1 on CH7C17 Jurkat cells
# Test: fluorescence microscopy of labelled protein on cells
substance,measurement,value
Staphylococcal Enterotoxin B (from UniProt P01552 28-266) (natural protein),MFI at 5 minutes,427
